What all share (assay): SPR, captured via anti-human kappa, soluble ECD injected
In test [1] the target is T1, Soluble human HER-2 extracellular domain (ECD) protein (human, UniProt P04626 23-652).
T1 construct: extracellular domain; His-tagged

In test [2] the target is T2, Soluble human EGFR ECD protein (human, UniProt P00533 25-645).
T2 construct: extracellular domain; His-tagged

Test [3] deals with T3, Soluble human cMet extracellular domain (ECD) protein (human, UniProt P08581 25-932).
T3 construct: extracellular domain; His-tagged

These results are taken from patent US20240132626A1 (Eli Lilly, published 2024).

T3 sequence (P08581 25-932): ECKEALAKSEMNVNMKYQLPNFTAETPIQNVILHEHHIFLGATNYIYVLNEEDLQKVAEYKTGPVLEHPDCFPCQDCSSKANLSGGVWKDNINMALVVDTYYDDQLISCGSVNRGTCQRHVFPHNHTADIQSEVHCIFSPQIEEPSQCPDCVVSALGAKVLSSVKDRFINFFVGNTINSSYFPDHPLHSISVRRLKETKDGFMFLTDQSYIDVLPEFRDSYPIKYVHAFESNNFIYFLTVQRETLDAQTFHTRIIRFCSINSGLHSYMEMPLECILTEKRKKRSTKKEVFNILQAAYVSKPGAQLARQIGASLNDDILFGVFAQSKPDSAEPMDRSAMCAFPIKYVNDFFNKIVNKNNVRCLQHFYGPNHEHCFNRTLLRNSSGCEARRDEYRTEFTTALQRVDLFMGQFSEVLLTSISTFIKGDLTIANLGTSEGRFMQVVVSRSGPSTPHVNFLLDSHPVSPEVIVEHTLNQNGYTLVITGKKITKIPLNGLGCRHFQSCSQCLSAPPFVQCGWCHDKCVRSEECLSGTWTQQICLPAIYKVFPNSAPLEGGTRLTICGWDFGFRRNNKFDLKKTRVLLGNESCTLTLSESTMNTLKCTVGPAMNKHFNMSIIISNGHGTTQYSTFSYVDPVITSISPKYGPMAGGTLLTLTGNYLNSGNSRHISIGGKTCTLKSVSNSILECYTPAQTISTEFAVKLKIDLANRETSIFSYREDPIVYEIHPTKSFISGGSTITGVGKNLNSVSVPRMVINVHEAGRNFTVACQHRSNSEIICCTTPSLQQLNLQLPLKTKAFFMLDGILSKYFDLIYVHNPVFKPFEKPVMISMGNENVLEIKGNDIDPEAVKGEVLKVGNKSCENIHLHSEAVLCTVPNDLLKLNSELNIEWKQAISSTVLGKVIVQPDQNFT

B1: HER-2 X EGFR X cMet TsAb_HHH (other)
heavy: EVQLVESGGGLVQPGGSLRLSCAASGFTFTDYTMDWVRKAPGKGLEWVADVNPNSGGSIYNQEFKGRFTLSVDRSKNTLYLQMNSLRAEDTAVYYCARNLGPSFYFDYWGQGTLVTVSSASTKGPSVFPLAPSSKSTSGGTAALGCLVKDYFPEPVTVSWNSGALTSGVATGPAVLQSSGLYSLSSVVTVPSSSLGTQTYICNVNHKPSNTKVDKKVEPKSCGGGGSGGGGSGGGGSQVQLVQSGAEVKKPGASVKVSCKASGYTFTSHWMHWVRYAPGQGLEWIGEFNPSNGRTNYNEKFKSKATMTVDTSTNTAYMELSSLRSEDTAVYYCASRDYDYDGRYFDYWGQGTLVTVSSASTKGPSVFPLAPCSKSTSGGTAALGCLVKDYFPEPVTVSWNSGALTSGVHTFPAVLQSSGLYSLSSVVTVPSSSLGTQTYICNVNHKPSNTKVDKKVEPDSGGGGGSGGGGSGGGGSEVQLVESGGGLVQPGGSLRLSCAASGYTFTSYWLHWVRQAPGKGLEWVGMIDPSNSDTRFNPNFKDRFTISADTSKNTAYLQMNSLRAEDTAVYYCATYRSYVTPLDYWGRGTLVTVSSASTKGPSVFPLAPSSKSTSGGTAALGCLVADYFPEPVTVSWNSGALTSGVHTFPAVLQSSGLYSLSSVVTVPSSSLGTQTYICNVNHKPSNTKVDERVEPKSCHHHHHHHH
light 1: RIQMTQSPSSLSASVGDRVTITCKASQDVSIGVAWYQDKPGKAPKLLIYSASYRYTGVPSRFSGSGSGTDFTLTISSLQPEDFATYYCQQYYIYPYTFGQGTKVEIKGQPKAAPSVTLFPPSSEELQANKATLVCYISDFYPGAVTVAWKADSSPVKAGVETTTPSKQSNNKYAAWSYLSLTPEQWKSHRSYSCQVTHEGSTVEKTVAPTEC
light 2: DIQMTQSPSSLSASVGDRVTITCSASSSVTYMYWYQRKPGKAPKLLIYDTSNLASGVPSRFSGSGSGTDYTFTISSLQPEDIATYYCQQWSSHIFTFGQGTKVEIKRTVAAPSVFIFPPSKEQLKSGTASVVCLLNNFYPREAKVQWKVDNALQSGNSQESVTEQDSKDSTYSLSSTLTLSKADYEKHKVYACEVTHQGLSSPVTKSFNRGEC
light 3: DIQMTQSPSSLSASVGDRVTITCKSSQSLLYTSSQKNYLAWYQQKPGDAPKLLIYWASTRESGVPSRFSGSGSGTDFTLTISSLQPEDFATYYCQQYYAYPWTFGQGTKVEIKRTVAAPSVFIFPPSDKQLKSGTARVVCLLNNFYPREAKVQWKVDNALQSGNSQESVTEQDSKDSTYSLISTLTLSKADYEKHKVYACEVTHQGLSSPVTKSFNRGEC
notes: Tandem Fab trispecific antibody without Fc
Regarding B1, the Kd in test [1] amounted to 0.8 nM; in test [2], 15 nM; in test [3] it was 0.77 nM. Further, the koff was found to be 0.00022 s⁻¹ in test [1], 0.0055 s⁻¹ in test [2] and 0.00013 s⁻¹ in test [3]. Moreover, the results for the kon in test [1], in test [2] and in test [3] were 260000 M⁻¹ s⁻¹, 360000 M⁻¹ s⁻¹ and 170000 M⁻¹ s⁻¹, respectively.

B2: HER-2 X EGFR X cMet TsAb_HHL (other)
heavy: EVQLVESGGGLVQPGGSLRLSCAASGFTFTDYTMDWVRKAPGKGLEWVADVNPNSGGSIYNQEFKGRFTLSVDRSKNTLYLQMNSLRAEDTAVYYCARNLGPSFYFDYWGQGTLVTVSSASTKGPSVFPLAPSSKSTSGGTAALGCLVKDYFPEPVTVSWNSGALTSGVATGPAVLQSSGLYSLSSVVTVPSSSLGTQTYICNVNHKPSNTKVDKKVEPKSCGGGGSGGGGSGGGGSQVQLVQSGAEVKKPGASVKVSCKASGYTFTSHWMHWVRYAPGQGLEWIGEFNPSNGRTNYNEKFKSKATMTVDTSTNTAYMELSSLRSEDTAVYYCASRDYDYDGRYFDYWGQGTLVTVSSASTKGPSVFPLAPCSKSTSGGTAALGCLVKDYFPEPVTVSWNSGALTSGVHTFPAVLQSSGLYSLSSVVTVPSSSLGTQTYICNVNHKPSNTKVDKKVEPDSGGGGGSGGGGSGGGGSDIQMTQSPSSLSASVGDRVTITCKSSQSLLYTSSQKNYLAWYQQKPGDAPKLLIYWASTRESGVPSRFSGSGSGTDFTLTISSLQPEDFATYYCQQYYAYPWTFGQGTKVEIKRTVAAPSVFIFPPSDKQLKSGTARVVCLLNNFYPREAKVQWKVDNALQSGNSQESVTEQDSKDSTYSLISTLTLSKADYEKHKVYACEVTHQGLSSPVTKSFNRGECHHHHHHHH
light 1: B1 light 1
light 2: B1 light 2
chain: EVQLVESGGGLVQPGGSLRLSCAASGYTFTSYWLHWVRQAPGKGLEWVGMIDPSNSDTRFNPNFKDRFTISADTSKNTAYLQMNSLRAEDTAVYYCATYRSYVTPLDYWGRGTLVTVSSASTKGPSVFPLAPSSKSTSGGTAALGCLVADYFPEPVTVSWNSGALTSGVHTFPAVLQSSGLYSLSSVVTVPSSSLGTQTYICNVNHKPSNTKVDERVEPKSC
notes: as for B1
Turning to B2, in test [1], the Kd is 0.7 nM, the koff stood at 0.00021 s⁻¹ and the kon was determined as 300000 M⁻¹ s⁻¹. In test [2], this molecule showed a Kd of 10 nM, a dissociation rate constant (koff) of 0.0058 s⁻¹ and a kon of 560000 M⁻¹ s⁻¹. For the same molecule, in test [3], binding was characterised by a dissociation constant (Kd) of 0.54 nM, the koff came to 0.00014 s⁻¹ and the kon amounted to 260000 M⁻¹ s⁻¹.
